“And” between values parts separate entries of the source, which are not always exact repeats. Identical values can stand only once. Like-named read-outs stand apart in the source and are kept apart here.
Molecular target: T1, hIL-1R1 (Homo sapiens, UniProt P14778)
T1 construct: the cell suspension containing the mature Interleukin-1R1(21–337)-His6 was centrifuged; made in house; host or cells: HEK-ExpiGnti- cells (transient, secreted)
T1 sequence (P14778 21-337): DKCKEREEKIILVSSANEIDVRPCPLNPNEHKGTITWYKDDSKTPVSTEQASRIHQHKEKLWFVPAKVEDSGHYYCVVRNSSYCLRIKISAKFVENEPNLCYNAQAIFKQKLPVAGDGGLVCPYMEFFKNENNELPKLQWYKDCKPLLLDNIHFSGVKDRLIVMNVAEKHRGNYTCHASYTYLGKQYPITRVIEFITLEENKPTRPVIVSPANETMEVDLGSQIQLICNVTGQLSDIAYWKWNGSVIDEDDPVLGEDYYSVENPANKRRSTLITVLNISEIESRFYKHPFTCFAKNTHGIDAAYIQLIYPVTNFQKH
Experiment: SPR binding of IL-1β and V47A variant to immobilized IL-1R1
Conditions: source data, read-out: SPR binding to IL-1R1, individual experiments (Exp1-3)
Protocol: The receptor IL-1R1 was covalently immobilized to the chip surface of a CMD50L sensor by amine coupling. The coupling reagents (EDC/NHS and ethanolamine) were from Bruker. 1× PBS pH 7.5 (Gibco 70011-036, 10×), 0.05 % Tween-20 was used as running buffer. The chip surface was activated with a 3 min injection of EDC/NHS (200 mM 1-ethyl-3-(3-dimethylaminopropyl)-carbodiimide hydrochloride, 25 mM N-hydroxysuccinimide), followed by the protein injection of 0.02 mg/ml IL-1R1 diluted in 10 mM sodium acetate pH 5.0 for 3 min at 10 μl/min. The remaining active succinimides on the surface were deactivated by an injection of 1 M ethanolamine hydrochloride pH 8.5 over 3 min at 10 μl/min.
The injection of the protein dilution series was performed with 8 concentrations in SICK mode (single injection cycle kinetic) with a flow rate of 40 μl/min and 2 reference injections with buffer before and after the protein injection.
Data analysis was performed with the Sierra Analyzer 3.4.0 software from Bruker. Signal intensities were corrected for nonspecific binding to the surface by subtracting intensities from the reference surface from those of the hIL-1β surfaces (first reference subtraction) and by subtracting the buffer injection (second reference subtraction). […]
as se ss ed by SPR. Bindi ng of hI L-1b (a, b) and hI L-1bV47A (c, d) to hI L-1R1 monitored by SPR. […]

Row | Kd (listed as wt IL-1beta) | Kd (listed as IL-1beta V47A) | Substance
1 | 3.9 nM and 2.4 nM | – | hIL-1β: proteolytically processed mature human interleukin-1β, analyte in SPR on IL-1R1
2 | – | 3.4 nM and 4.3 nM and 4 nM | hIL-1β^V47A: hIL-1β variant with Val47 replaced by Ala
